Test results reported in PMC9668914, “Understanding VPAC receptor family peptide binding and selectivity” (Nature Communications, 2022).

Target: PACAP type 1 receptor (PAC1R), PAC1null splice variant, FLAG and His tagged (UniProt P41586)
Sequence (P41586 21-468, change not shown): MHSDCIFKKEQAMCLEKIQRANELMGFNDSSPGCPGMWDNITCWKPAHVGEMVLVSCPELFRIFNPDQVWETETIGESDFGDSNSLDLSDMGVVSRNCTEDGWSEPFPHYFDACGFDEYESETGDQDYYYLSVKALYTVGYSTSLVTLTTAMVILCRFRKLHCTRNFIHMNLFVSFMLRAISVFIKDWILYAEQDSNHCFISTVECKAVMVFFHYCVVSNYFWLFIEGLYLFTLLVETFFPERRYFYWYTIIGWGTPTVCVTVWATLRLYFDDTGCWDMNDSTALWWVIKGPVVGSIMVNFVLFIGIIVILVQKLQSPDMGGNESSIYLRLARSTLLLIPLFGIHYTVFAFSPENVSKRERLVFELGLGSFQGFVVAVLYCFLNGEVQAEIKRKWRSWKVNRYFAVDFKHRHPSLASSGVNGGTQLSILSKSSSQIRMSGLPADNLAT

Substance	cAMP potency in COS-7 cells transfected with PAC1R, fold change relative to PACAP27 [fold]	cAMP potency in COS-7 cells transfected with PAC1R, fold change relative to VIP [fold]
Ala4 PACAP27 (peptide)	5	–
Gly4 VIP (peptide)	–	3
